We go through 23 sequences from the DeepSol protein solubility set.

The nature of this data set: soluble on expression in E. coli; label from the status in PepcDB or PDB records.
For “MKIGVLGLQGAVREHVRAIEACGAEAVIVKKSEQLEGLDGLVLPGGESTTMRRLIDRYGLMEPLKQFAAAGKPMFGTCAGLILLAKRIVGYDEPHLGLMDITVERNSFGRQRESFEAELSIKGVGDGFVGVFIRAPHIVEAGDGVDVLATYNDRIVAARQGQFLGCSFHPELTDDHRLMQYFLNMVKEAKMASSLK”, the “soluble on expression in E. coli” value is “soluble”.
With “MSLFMPPVFPAHWHVSQPVLIADTFSSLVWKVSLPDGTPAIVKGLKPIEDIADELRGADYLVWRNGRGAVRLLGRENNLMLLEYAGERMLSHIVAEHGDYQATEIAAELMAKLYAASEEPLPSALLPIRDRFAALFQRARDDQNAGCQTDYVHAAIIADQMMSNASELRGLHGDLHHENIMFSSRGWLVIDPVGLVGEVGFGAANMFYDPADRDDLCLDPRRIAQMADAFSRALDVDPRRLLDQAYAYGCLSAAWNADGEEEQRDLAIAAAIKQVRQTSYEGHHHHHH” the entry was “soluble”.
Then “GSHMGGWSIALHGGAGDIPFSLPPERRKPREEGLRHCLQIGVEALKAQKPPLDVVELVVRELENIEHFNAGIGSVLTNSGTVEMEASIMDGNTMKCGAVSGLSTVLNPISLARLVMDKTPHIYLAFQGAQDFAKQQGVETVDSSHLITAENVERLKLAIEANRVQVDYSQYNYPEPVKDDAEKELPLTNGDSQIG”, with “soluble”; and “MQNDMSVVLRAGKLLIESGAEVYRVEDTMKHFAKALQIENFEAYVVSSSIIASGINRYGKQEAKVCNTDGVTANLGRLEAVNNLSRQIAKQDLVSPEEIVKQLDLIEHQKD”, with “not soluble”; and “MEEEFSMFIMSMSNSMSSLWPAPIEMDSIDEGTENVANIASRWSTCCNIIRLHIEQMIGCEVDVAVAKSTDLGVSMTRGNSDSKLEPISTLLSTISKTIESNGEANAEFAIREIEKMNKSCETEYKIKKFHWFIDVEMFLNIKLALLDREFPPNLTVYVIGELKTLYDDYEAAKEVATNFERSSVNLRFLLCPADLKELNREIIAEKRQKMSEKEIICRFGSDKFKIKLFKKQKIGSHVTLIDSISFLGFLPEIELCRQGFLGSKRSNKLKMDITTDSKLGNKILFSLSQYLLNETKRPQTALFSFSSKPKLRGFCIMVAYESENDETSITLIQLKASLGKCLWKTLKFVNQSGEHSRPLPDDSYEQIAPIERKQLKRRLSRIERIASSVEEKRAQFEAFAREYDALDARDAFMKFTSTWQTDQGLLTAPTPFEDDNNNK”, with “not soluble”.
Then “MEVLVIAPRICVNVIRTLPIGLPVGVEKRLRAFDPDVIHLASPYAFAARAAFIAQKMAVPCVAVYQTDVAAYQQHYHLTWLKNLEHHHHHH”, with “not soluble”; and “MGSSHHHHHHGGTGENLYFQGGSGNRIDISNFDFLYVIGKGTYGIVYKALDKKENNFVAIKKIINLCDENYGISKCILRELTILQKIKHKNIINLKYVFYGKDIEDKLKGENLENSCLYLAFEYCDIDLFNLIKKHNLNIKEIKYIIFELLLALSYFHSNNYIHRDIKPENIFITSEGEIKLGDLGMSVEKSDHMTPTVVTLWYRAPEILLKSTNYDQKVDIWSLGCLFMELIQGRPLFPGKNDCTQLELIYLLLGDKDKLTTVDKERKDMFPYFEINMLKDAIDDEHTLDLISKMLIYDPNYRISSKEALKHPCFQDIEQVKFSYNF”, with “not soluble”; and “MTTLAIDIGGTKLAAALIDNNLRISQRRELPTPASKTPDALREALKALVEPLRAEARQVAIASTGIIQEGMLLALNPHNLGGLLHFPLVQTLEAIAGLPTLAVNDAQAAAWAEYHALPDDIRDMVFITVSTGVGGGVVCDGKLLTGKGGLAGHLGHTLADPHGPVCGCGRVGCVEAIASGRGMAAAARDDLAGCDAKTLFIRAGEGHQQARHLVSQSAQVIARMIADVKATTDCQCVVIGGSVGLAEGYLEQVRAFLMQEPAPYHVALSAARYRHDAGLLGAALLAQGDTL”, with “not soluble”.
As to “MGSDKIHHHHHHMQTNDKVLKAFHSVKDVGSERSIVELGWLEVVSVKPPKIVVRLNLPNFAIAQRGQMAVDIRESIKSLEDIEEVQIEIGDSSPSKESPIGQAGHGSQSQGLTAIPKVKNVIAISSGKGGVGKSTVAVNLACALSQKGFKVGLLDADIYGPNTPYMLGVSEITPEVSGSGAEQKIIPIETCGIGMVSMGLLIDQNQPVIWRGPMLNGIIRQFLYQASWGERDFLIVDLPPGTGDAQLSLAQAVPMAGVIIVTTPQNVSLQDSRRGLAMFKQMNIPVLGVIENMTYFIPPDQPQKSYKIFGSGGGSQLAKENNVPLLSQIPIETDTFSGTGKDLPVVHTSRDSITAKVFLELAGTLCNALSVKQ”, the “soluble on expression in E. coli” value is “not soluble”.
For the sequence “KLKNYKTSELMIQSSNNYKLESLFITSNIKTRDTMILVHGIGSSYYEMLKVAYRYLDKGYNVLVYNQRNTGNSGGDNYTFGLYERYDLDSLVKFVKNKFPEGRLGVHGFSMGAGTAAMHSEINSKDDKVDFYILDSPYSEMKDAIRMGVLEKRIPDILINYVVTCGDLYNKFKSGFWYSDVKPYESVEKSNVPILFIHGTKDTVCNYQNSKKMYDLVKHDKKDLWLIEGIGHVDGFEHDSTVYFNKIFKFIDSNVLSDKS”, the “soluble on expression in E. coli” value was “not soluble”.
“MNENKLRRLIKKNEYEKLDFKLKIELFTESVKKELAKDICAIANSRGGRGYIIIGVEDKTKKIVGVDADYITEERVQQIVASRIEPPVPISLEECFLDGKRLLVIVIFNSYQKPYQIRENGAFYIRRGSTTDIMRKQELLSEFQKGISFNLETCPIVNSNIDFLNEELVRRYFYLKGIKISKENREFLLSSSNIIHKNNISGKSMCTLGGLLVFSDVNSIYIPHNMIKIRNLLGGEQTFIIRGNILDMMKSMEKKLREIVPNEYPVALIIDTIRNILIYRDYSQYNKIVEVVLGKKELTVYCPGEIVKRYRDGRIGYIKRNMWIYEKIISLDSRDGEMNYNLGGKEVKESFTNKVKVITVNEENITKFIFNKYRTIGLEHHHHHH”: the “soluble on expression in E. coli” value is recorded as “soluble”.
With “MVIQLQKGQKIDLGKTSPGLTKAVIGLGWDIKSYDGGSDFDLDASAFLLDANGKCTKETDFIFYNNLQSPCGSVLHTGDNRTGEGEGEGDDEQLVVDLKKVPADVHRIAITVTIYDAEGRSQNFGQVGNAFVRLANEETNEEVLRFDLGEDFSIETAVVFCELYRHNGQWKFNAVGSGFQGGLGALVRAYGLDA” the entry was “not soluble”.
Regarding “MIGTAVKELLLEKQETFLVPAENVANVMCLNPLSHAALVLSQVRYSKIPVLDKGDRFVGLIGLTDVVDKMFDLTSVDFEKLNEFTVADVMEVNVPVIGESWDLEEVLHLLVDASFLPVVDDNQRFKGIITRKEILKAVNHMAHELEKHHLVLPKSEEEMKVI”, the “soluble on expression in E. coli” value is on record as “not soluble”.
With “MQKIGEWLKEHDVKVTTIYFGGGTPTSITAEEMDLLYEEMVRSFPDVKNIREITVEAGRPDTITEEKLAVLNKYDIDRISINPQSYENETLKAIGRHHTVEETIEKYHLSRQHGMNNINMDLIIGLPGEGVKEFRHSLSETEKLMPESLTVHTLSFKRASEMTRNKHKYKVAGREEVSQMMEDAVAWTKEHGYVPYYLYRQKNILGNLENVGYSLPGQESIYNIMIMEEVQTIIGIGCGAASKFIDRDTGKITHFANPKDPKSYNERFEHYTDEKIKYLEQIFEKTTKQHLEHHHHHH” the entry was “not soluble”; with “MGHHHHHHSHMKDIGHLQHLAQRLQWNRRAVNICGMHGWTKDLSPHSRMPSMLEHVKHYMSC”, “not soluble”.
Then “MEGIIVRRVIPSDNSCLFNAIGYVMDKDKNKAPELRQVIAAAVASNKEKYNEAFLGKLNEEYCAWILNPDKWGGAIELSILADYYGREIAAYDIQTSRCDLYGQTRNYDERVMLIYDGLHYDALALSPFEGAEEDFDMTIYPVGKDRSIGSIEGLALNLVKDQQRKRSYTDTANFTLRCGVCQIGVIGQKEAVEHAQATGHVNFQEYK”, with “soluble”; and “MATLFIADLHLQTEEPAITAGFLRFLQGEARQADALYILGDLFEAWIGDDDPNPLHQQIASAIKAVVDAGVPCYFIHGNRDFLVGQRFARQSGMILLAEEERLDLYGREVLIMHGDTLCTDDQGYLAFRAKVHTPWIQRLFLALPLFIRHRIAARMRADSKAANSSKSMEIMDVNPQAVVDAMERHHVQWLIHGHTHRPAVHELQANGQPAWRVVLGAWHSEGSMVKVTPDDVELIHFPF”, with “not soluble”.
With “HMSSLQRASVSFNKPGHIPFGAVQGYAPGGVPAYSNKHDHYFSGERNIEDNIFFGFKYQCVEFARRWLLVRKGLLLPDVNWACHIFQLKEVRDAATTESFAVLQVRNGTTTKPEADALLVYPSTDANPVGHVGTITEVGDDYVCVADQNYRFHKWESSCAYKLKLDHRDGIWTIIDDIDADEIEIPLGWLTFPGRANRPEGAPPVALHPSLHFKEPPKPYLLRRNFLPTESKANWLDMNNPAERLFVEEFGMDVSRTRLEEKVVSYYESNHEFHLRCVAYGTQLHAIFMEATAQVIESDEKLRLFAIPEEFWPRIRHSWKYQQTYISGRFDFAFNNETGEVKCFEYNADSASTLLECGLIQQKWAESVGLDKQDTRGSGFAVERNLKMAWANSGATGRVHFCVDEEREEQYTALYCMQAAEAVGLEGKLCILFDEFRFDDNGHVVDSDGVRVRNVWKTWMWESAITDYYAAREERGENWKPSPKDKVRLCDLLLGDDWEILYFEPMWKVIPSNKAILPMIYHNHPEHPAILKAEYELTDELRKHGYAKKPIVGRVGSNVIITSGDGVVHAESGGKYGKRNMIYQQLFELKKQDDYYAIIGGWMIGDAFSGTGIREDKSVITGVDSPFAAVRIKTDKLPHPVTLKDIDKMAEDE” the entry was “soluble”.
On to “MDRVLPFRFAEEEGVFWLLDQRRLPQEEVYVPVRTAREMAQAIRDMVVRGAPAIGVSAAFGMVLAHLAGEDLEEADRRLRASRPTAVNLFHALDRMRPFWGDLAGSLLEARRIWREVEETEAAISRHGAQVLWGQVLTHCNTGPLATGGYGTALGAIVEAYRLGRVRHVWVDETRPYLQGARLTAYELQKAGVPATLITDGMAGWLMARGAVDAVVVGVDRMALNGDFANKVGTYALAVLAHHHGIPFYAALPLSSVDPRLASGEGIPIEERSPEEVVAFRGVRIAPEGFPAYHPAFDVTPHRYLTGIITEKGVLYPPFAEGLRRALGLD”, for which the “soluble on expression in E. coli” value was “soluble”.
As for “MGSDKIHHHHHHMCLVVAARWPSRLVSSVKEDKMKPSTSRLTLLAGILGLPMALCLPLAAQAQSNQWQVNGFIGQGYISADGSEFIVGESGDTFDVTEAALHLSWMPDEHFRVAGAARYRQWGNLDESGLSADYLFAEYKFILDQGYVGARGGLFKSEAGFYTSTRDVSFTRPGILLPQSVYSDYLRDALLHITGGELFGGHPLLDGSLEWHLTLGDAQTSDDLTRNVVGSEEFGRFDADGYWGADLEYQDDSLRLGLTYFDAKSRYQSHLGGPFADGSLRSKHWIVSAQYRINFLEFTGEYLHWDRYVGGVFVPPELGIYEVRGYGYYLDVRGYLPGDVEVFVRYDHQVQDEKDPDGDKLAERGLPGYFGYAHDWTIGTRWLPAKDWMVAAEYHKVRGAAWVTPILLPNPAVQDKDWSLFAIEISYKFQW”, the “soluble on expression in E. coli” value is “not soluble”.
Then “MDRATVVGGAARRLAMIAVIIPAHNEAECMAACLASVFLAASHPELREPVEVIVAVDRCTDATAALAQALGARVIDVPVPGGVGIARAAAASKAIALGADWLAVTDADSRVPADWLVEQRRADADVFCGVVQVEDWLDYSDEVRCRFEQTQATGQGHGRIHGANLGVSAALYQQCGGFPAVTCSEDVALVHALQAINASIAWSPRSVVWTSARRQARAIGGFSDFLKKLEASTCVPALEHHHHHH”, with “not soluble”; and “LSIPEDYQVRLQPTRVAGSYPLVRLEFTGATVDAPLMTQIARKYNIDVSILSSDLDYAGGVKFGMMVAEIFGNADDDEAAIRYLRENNVKVEVLGYVL”, with “not soluble”; and “MFVVKDCCQMIEVLFFIFKTNFKNCFPKMRKSKMYKSEPYSKKTIKIKKATDCGVITNIFSHFNEYVKQTIR”, with “soluble”.
